Legend:
[1] = target: CDA-ZnF-KLF1 (mouse, UniProt P46099 275-358, E321K); assay: EMSA
[2] = target: WT-ZnF-KLF1 (mouse, UniProt P46099 275-358); assay: EMSA
Sequence of WT-ZnF-KLF1 (P46099 275-358): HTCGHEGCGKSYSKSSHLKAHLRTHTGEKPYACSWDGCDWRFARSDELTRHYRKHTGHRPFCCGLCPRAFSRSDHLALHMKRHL

Sequence of CDA-ZnF-KLF1 (P46099 275-358 E321K): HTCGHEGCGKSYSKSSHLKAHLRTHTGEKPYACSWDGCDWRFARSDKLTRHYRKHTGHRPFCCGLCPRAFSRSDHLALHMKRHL

B1: 9xG (CDA-GGG) (dsDNA)
DNA 1: AGCTAAGGGGGGGGGCA
DNA 2: AGCTTGCCCCCCCCCTT
Which results are given for B1?
Kd [1]: 696 ± 71.1 nM; Kd [2]: ~4990 nM
